Laboratory results as given in patent publication US20070160605A1 (RINAT NEUROSCIENCE, published 2007).
Several values for one entry are separate records, joined by “and”; a condition that tells them apart may be missing. Equal entries are not always repeated.

Target: T1, human NGF (human, UniProt P01138 122-241, limits assumed)
T1 construct: also called hNGF; human nerve growth factor
Test: binding affinity, method not stated

T1 sequence (P01138 122-241 limits assumed): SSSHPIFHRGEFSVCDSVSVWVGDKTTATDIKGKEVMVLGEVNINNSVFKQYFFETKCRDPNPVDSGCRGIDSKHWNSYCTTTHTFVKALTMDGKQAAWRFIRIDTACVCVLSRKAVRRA

B1: humanized anti-NGF antibody E3 (antibody, V domains shown)
VH: QVQLQESGPGLVKPSETLSLTCTVSGFSLIGYDLNWIRQPPGKGLEWIGIIWGDGTTDYNSAVKSRVTISKDTSKNQFSLKLSSVTAADTAVYYCARGGYWYATSYYFDYWGQGTLVTVS
VL: DIQMTQSPSSLSASVGDRVTITCRASQSISNNLNWYQQKPGKAPKLLIYYTSRFHSGVPSRFSGSGSGTDFTFTISSLQPEDIATYYCQQEHTLPYTFGQGTKLEIK
Kd: ~0.07 nM and ~0.1 nM
